One may read the stoichiometry N as the number of molecules, sites or subunits per partner or assembly.

Our source for the stoichiometry N values is publication PMC7064499.

For this experiment, the target named is FliPQR complex, V. mimicus (FliP5Q4R1) (Vibrio mimicus (strain DSM 19130)). The experiment can be described thus: cryo-EM structure.

For the substance FlhB, V. mimicus (natural protein), the stoichiometry N amounted to 1.
